Measurements: US20090117096A1 (Scripps Research, published 2009)

What was measured:
integrin α5β1 = target: T1, integrin α5β1 (human, UniProt P08648 42-1049; P05556 21-798); experiment: flow cytometry on human tumor cell panel (FIG. 1)
T1 construct: whole, on cells
Description: Flow cytometry. scFv binding to human tumor cells was analyzed by flow cytometry, initially with cloned scFv phage and then with purified scFv protein. […] Binding/washing buffer was TBS with or without divalent cations (1 mM Ca²⁺, 1 mM Mg²⁺, 0.2 mM Mn²⁺). […] All samples were counter stained with propidium iodide (PI) and analyzed on a Becton-Dickinson FACScan, with live gate set to exclude PI positive cells.

integrin αvβ5 = target: T2, integrin αvβ5 (human, UniProt P06756 31-1048; P18084 24-799); experiment: flow cytometry on human tumor cell panel (summary statement)
T2 construct: whole, on cells

integrin αvβ1 = target: T3, integrin αvβ1 (human, UniProt P06756 31-1048; P05556 21-798); experiment: as above
T3 construct: whole, on cells

Measured: binding result

T1 sequence (P08648 42-1049, chain 1 of 2): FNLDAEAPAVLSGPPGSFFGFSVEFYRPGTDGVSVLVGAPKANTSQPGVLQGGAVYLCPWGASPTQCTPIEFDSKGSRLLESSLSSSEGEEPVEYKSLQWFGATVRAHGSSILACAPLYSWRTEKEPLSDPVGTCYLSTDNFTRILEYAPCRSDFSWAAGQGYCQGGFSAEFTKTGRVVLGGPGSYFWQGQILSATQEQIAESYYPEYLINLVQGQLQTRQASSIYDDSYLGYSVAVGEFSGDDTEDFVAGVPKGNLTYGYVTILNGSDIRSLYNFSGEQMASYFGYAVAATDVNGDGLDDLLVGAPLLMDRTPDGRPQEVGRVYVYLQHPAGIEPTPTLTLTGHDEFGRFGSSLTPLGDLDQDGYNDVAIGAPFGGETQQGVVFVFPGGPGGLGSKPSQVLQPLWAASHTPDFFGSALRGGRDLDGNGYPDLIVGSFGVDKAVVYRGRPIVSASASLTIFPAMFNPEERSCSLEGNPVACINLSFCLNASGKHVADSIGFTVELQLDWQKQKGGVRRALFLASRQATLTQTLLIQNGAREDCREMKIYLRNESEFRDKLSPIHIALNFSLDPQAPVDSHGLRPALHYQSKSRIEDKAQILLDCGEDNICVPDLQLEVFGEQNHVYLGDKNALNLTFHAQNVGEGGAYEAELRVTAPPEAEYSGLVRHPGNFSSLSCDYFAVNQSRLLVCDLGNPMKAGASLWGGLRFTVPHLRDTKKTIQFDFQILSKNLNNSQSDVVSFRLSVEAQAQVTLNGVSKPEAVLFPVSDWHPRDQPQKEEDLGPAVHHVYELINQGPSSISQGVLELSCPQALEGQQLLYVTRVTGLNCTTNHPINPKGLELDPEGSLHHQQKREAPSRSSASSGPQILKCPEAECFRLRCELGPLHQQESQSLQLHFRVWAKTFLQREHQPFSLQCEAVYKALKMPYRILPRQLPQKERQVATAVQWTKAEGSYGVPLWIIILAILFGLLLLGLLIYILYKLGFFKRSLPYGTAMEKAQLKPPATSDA
T1 sequence (P05556 21-798, chain 2 of 2): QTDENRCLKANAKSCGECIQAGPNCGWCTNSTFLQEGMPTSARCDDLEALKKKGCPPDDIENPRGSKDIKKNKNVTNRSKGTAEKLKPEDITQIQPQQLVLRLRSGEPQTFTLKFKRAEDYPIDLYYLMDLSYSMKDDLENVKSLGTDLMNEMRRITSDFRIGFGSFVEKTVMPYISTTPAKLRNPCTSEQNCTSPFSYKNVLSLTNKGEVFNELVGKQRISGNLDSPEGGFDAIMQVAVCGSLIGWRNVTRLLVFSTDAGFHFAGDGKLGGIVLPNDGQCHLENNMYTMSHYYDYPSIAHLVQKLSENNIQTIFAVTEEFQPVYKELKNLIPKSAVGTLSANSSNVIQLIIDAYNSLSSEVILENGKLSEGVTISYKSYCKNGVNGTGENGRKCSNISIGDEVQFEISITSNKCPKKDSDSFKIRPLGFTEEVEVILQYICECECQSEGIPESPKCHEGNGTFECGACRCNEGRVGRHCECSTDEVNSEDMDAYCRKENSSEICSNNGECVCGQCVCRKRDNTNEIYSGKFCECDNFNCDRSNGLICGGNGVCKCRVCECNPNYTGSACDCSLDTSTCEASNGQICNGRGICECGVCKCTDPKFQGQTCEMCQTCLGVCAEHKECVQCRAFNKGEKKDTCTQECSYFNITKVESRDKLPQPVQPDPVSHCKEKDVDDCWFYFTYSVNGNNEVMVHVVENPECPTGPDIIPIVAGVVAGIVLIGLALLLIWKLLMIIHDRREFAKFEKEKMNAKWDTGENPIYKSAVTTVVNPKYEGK
T2 sequence (P06756 31-1048, chain 1 of 2): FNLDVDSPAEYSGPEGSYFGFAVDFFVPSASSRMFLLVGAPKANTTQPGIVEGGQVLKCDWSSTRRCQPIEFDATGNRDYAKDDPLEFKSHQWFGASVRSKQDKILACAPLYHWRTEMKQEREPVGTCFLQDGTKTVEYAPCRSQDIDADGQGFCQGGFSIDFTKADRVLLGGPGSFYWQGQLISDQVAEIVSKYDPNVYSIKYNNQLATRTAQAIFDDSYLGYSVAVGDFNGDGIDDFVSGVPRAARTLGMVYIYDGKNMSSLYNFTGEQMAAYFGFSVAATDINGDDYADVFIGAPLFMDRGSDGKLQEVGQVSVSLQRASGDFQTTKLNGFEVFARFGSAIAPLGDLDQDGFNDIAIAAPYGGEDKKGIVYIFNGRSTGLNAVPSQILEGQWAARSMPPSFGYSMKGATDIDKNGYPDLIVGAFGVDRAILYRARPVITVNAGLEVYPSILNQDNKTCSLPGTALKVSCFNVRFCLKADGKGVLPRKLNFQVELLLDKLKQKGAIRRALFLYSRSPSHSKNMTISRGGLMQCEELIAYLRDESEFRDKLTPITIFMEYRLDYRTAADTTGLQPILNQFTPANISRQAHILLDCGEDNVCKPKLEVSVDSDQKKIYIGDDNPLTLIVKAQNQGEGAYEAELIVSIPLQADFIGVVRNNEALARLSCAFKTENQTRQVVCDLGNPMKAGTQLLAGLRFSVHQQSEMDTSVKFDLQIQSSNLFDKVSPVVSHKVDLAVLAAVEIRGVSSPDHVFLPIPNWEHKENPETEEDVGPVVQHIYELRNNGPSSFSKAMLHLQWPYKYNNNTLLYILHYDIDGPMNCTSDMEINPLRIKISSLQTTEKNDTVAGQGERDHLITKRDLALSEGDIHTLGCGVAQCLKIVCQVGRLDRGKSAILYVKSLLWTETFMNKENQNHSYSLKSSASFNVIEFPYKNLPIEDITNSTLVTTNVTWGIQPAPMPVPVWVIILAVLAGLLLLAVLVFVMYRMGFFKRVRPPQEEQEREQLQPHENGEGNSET
T2 sequence (P18084 24-799, chain 2 of 2): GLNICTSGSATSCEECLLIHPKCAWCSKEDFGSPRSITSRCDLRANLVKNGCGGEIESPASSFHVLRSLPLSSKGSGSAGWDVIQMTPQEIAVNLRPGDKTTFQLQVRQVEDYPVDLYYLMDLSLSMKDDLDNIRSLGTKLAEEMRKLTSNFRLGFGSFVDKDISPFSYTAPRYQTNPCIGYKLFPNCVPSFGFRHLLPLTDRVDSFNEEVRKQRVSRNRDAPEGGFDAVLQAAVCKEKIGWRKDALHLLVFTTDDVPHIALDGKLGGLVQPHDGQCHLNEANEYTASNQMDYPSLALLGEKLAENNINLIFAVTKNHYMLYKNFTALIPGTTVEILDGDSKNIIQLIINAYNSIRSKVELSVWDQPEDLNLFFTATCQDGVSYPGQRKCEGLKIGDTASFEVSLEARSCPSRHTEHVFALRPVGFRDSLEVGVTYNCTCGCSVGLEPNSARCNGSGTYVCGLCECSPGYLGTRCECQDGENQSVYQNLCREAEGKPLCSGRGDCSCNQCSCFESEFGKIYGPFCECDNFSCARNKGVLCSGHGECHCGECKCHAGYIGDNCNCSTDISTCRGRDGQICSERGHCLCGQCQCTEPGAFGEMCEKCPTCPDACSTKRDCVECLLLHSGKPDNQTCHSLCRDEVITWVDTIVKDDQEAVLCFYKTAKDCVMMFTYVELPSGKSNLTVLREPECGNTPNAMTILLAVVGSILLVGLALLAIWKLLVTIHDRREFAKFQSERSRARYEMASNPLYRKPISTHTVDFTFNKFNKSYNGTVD
T3 sequence (P06756 31-1048, chain 1 of 2): as the sequence (P06756 31-1048, chain 1 of 2) above
T3 sequence (P05556 21-798, chain 2 of 2): as the sequence (P05556 21-798, chain 2 of 2) above

B1: scFv antibody Bc-12 (scFv)
scFv: MAQVQLVQSGAEVKKPGASVKVSCKASGYTFSNYGITWVRQAPGQGLEWMGWINNGNTHYAQKFQGRVTMTTDTSTSTAYMELRSLRSDDTAVYYCARDPRGDDEPYWGQGTLVTVSSGGGGSGGGGSGGGGSEIVLTQSPLSLPVTLGQPASISCRSSQNLVYSDGNTYLSWFQQRPGQSPRRLIYKVSNRDSGVPDRFSGSGSGTDFTLKISRVEAEDIGVYYCMQGTHWPPRTFGQGTKVEIKRGLGGLVDYKDDDDK
notes: also called scFv Bc-12
no binding: all assays above
